Key:
[1] = tested on: T1, NC(=O)C1=CN([C@@H]2O[C@H](COP(=O)(O)OP(=O)(O)OC[C@H]3O[C@@H](n4cnc5c(N)ncnc54)[C@H](O)[C@@H]3O)[C@@H](O)[C@H]2O)C=CC1; test: NAD(P)H oxidation, A340; format: biochemical, Thermoanaerobacterium thermosaccharolyticum; conditions: acetoacetyl-CoA as substrate, 100 mM MOPS-KOH pH 7.5, 55 °C, varied: cofactor
T1 construct: His-tagged (vector pD861-CH), codon-optimised, expressed in E. coli BL21(DE3)
From the text: (§1) NAD(P)H oxidation, A340 on Tt_Hbd

[2] = tested on: T2, NC(=O)C1=CN([C@@H]2O[C@H](COP(=O)(O)OP(=O)(O)OC[C@H]3O[C@@H](n4cnc5c(N)ncnc54)[C@H](OP(=O)(O)O)[C@@H]3O)[C@@H](O)[C@H]2O)C=CC1; test: NAD(P)H oxidation, A340; format: biochemical, Thermoanaerobacterium thermosaccharolyticum; conditions: acetoacetyl-CoA as substrate, 100 mM MOPS-KOH pH 7.5, 55 °C, varied: cofactor
T2 construct: His-tagged (vector pD861-CH), codon-optimised, expressed in E. coli BL21(DE3)
From the text: as §1

[3] = tested on: T3, CC(=O)CC(=O)SCCNC(=O)CCNC(=O)[C@H](O)C(C)(C)COP(=O)(O)OP(=O)(O)OC[C@H]1O[C@@H](n2cnc3c(N)ncnc32)[C@H](O)[C@@H]1OP(=O)(O)O; test: NADH oxidation, A340; format: biochemical, Thermoanaerobacterium thermosaccharolyticum; conditions: 0.3 mM NADH, 100 mM MOPS-KOH pH 7.5, 55 °C
T3 construct: His-tagged (vector pD861-CH), codon-optimised, expressed in E. coli BL21(DE3)
From the text: NADH oxidation, A340 on Tt_Hbd

[4] = tested on: CC(O)CC(=O)SCCNC(=O)CCNC(=O)[C@H](O)C(C)(C)COP(=O)(O)OP(=O)(O)OC[C@H]1O[C@@H](n2cnc3c(N)ncnc32)[C@H](O)[C@@H]1OP(=O)(O)O; test: purified protein; conditions: 0.3 mM NADH, coupled with Ter, 100 mM MOPS-KOH pH 7.5, 55 °C

Chain of Tt_Hbd (Thermoanaerobacterium thermosaccharolyticum DSM 571) (chain, as listed by the source): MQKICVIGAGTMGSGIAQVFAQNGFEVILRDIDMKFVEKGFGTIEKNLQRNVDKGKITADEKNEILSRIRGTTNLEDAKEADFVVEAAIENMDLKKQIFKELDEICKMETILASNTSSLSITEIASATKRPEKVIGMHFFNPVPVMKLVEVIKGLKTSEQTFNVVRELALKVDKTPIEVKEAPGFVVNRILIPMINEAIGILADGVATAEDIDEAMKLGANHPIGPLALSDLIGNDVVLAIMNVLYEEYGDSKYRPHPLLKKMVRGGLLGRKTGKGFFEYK
Chain of Tt_Hbd (Thermoanaerobacterium thermosaccharolyticum DSM 571; D31A) (chain, as listed by the source D31A): as the sequence (chain, as listed by the source) above, with D31A counted along it

Row | Substance | Km [1] | Vmax [1] | Km [2] | Vmax [2] | Km [3] | Km [4]
1 | Tt_Hbd (Thermoanaerobacterium thermosaccharolyticum DSM 571; D31A) | 0.06 ± 0.02 mM | 38.5 µmol/min/mg | 0.03 ± 0.01 mM | 485 µmol/min/mg | – | –
2 | Tt_Hbd (Thermoanaerobacterium thermosaccharolyticum DSM 571) | 0.05 ± 0.02 mM | 61.4 µmol/min/mg | 1.1 ± 0.2 mM | 15.2 µmol/min/mg | 0.03 ± 0.01 mM | –
3 | Tt_Crt (Thermoanaerobacterium thermosaccharolyticum DSM 571) | – | – | – | – | – | 0.6 ± 0.1 mM

— publication PMC6652007, “Metabolic engineering of Clostridium thermocellum for n-butanol production from cellulose” (Biotechnology for Biofuels, 2019)
